# Measured values from IntAct's records for PubMed 16865698.
# B1: Mothers against decapentaplegic homolog 4 (Homo sapiens), Q13485 (parent)
# chain: MDNMSITNTPTSNDACLSIVHSLMCHRQGGESETFAKRAIESLVKKLKEKKDELDSLITAITTNGAHPSKCVTIQRTLDGRLQVAGRKGFPHVIYARLWRWPDLHKNELKHVKYCQYAFDLKCDSVCVNPYHYERVVSPGIDLSGLTLQSNAPSSMMVKDEYVHDFEGQPSLSTEGHSIQTIQHPPSNRASTETYSTPALLAPSESNATSTANFPNIPVASTSQPASILGGSHSEGLLQIASGPQPGQQQNGFTGQPATYHHNSTTTWTGSRTAPYTPNLPHHQNGHLQHHPPMPPHPGHYWPVHNELAFQPPISNHPAPEYWCSIAYFEMDVQVGETFKVPSSCPIVTVDGYVDPSGGDRFCLGQLSNVHRTEAIERARLHIGKGVQLECKGEGDVWVRCLSDHAVFVQSYYLDREAGRAPGDAVHKIYPSAYIKVFDLRQCHRQMQQQAATAQAAAAAQAAAVAGNIPGPGSVGGIAPAISLSAAAGIGVDDLRRLCILRMSFVKGWGPDYPRQSIKETPCWIEIHLHRALQLLDEVLHTMPIADPQPLD
# Variants of: B1
# Conditions: with fbw1a_human BTRC
row,Variant,effect of a mutation on the interaction
1,P102L,with no effect

# Variants of: B1
# Conditions: with skp2_human SKP2, Q13309
# Chain of skp2_human SKP2, Q13309 (Q13309 whole entry): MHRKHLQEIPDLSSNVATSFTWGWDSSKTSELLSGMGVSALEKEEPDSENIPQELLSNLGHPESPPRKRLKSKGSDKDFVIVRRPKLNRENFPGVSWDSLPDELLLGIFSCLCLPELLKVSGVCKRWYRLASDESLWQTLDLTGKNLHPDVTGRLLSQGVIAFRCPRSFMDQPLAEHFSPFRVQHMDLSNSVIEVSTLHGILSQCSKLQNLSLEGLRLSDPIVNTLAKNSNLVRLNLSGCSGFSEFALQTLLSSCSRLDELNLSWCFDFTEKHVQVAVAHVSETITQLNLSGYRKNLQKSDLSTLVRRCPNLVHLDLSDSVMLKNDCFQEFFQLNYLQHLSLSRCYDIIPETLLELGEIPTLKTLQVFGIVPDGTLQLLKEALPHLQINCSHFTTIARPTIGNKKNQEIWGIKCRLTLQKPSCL
row,Variant,effect of a mutation on the interaction
1,P102L,disrupting interaction strength
